For two proteins, Km results are on record in patent publication US20090232762A1, “COMPOSITIONS FOR DELIVERY OF THERAPEUTIC AGENTS” (priority 2008, published 2009).

Common to all, as to format: biochemical, S. cerevisiae
Substrate in data set [1]: Nc1cc[nH]c(=O)n1
Description: Enzyme activity of yCD-His (substrate turnover). The settings on record: other: enzyme yCD-His, 10 uL of 4.52 ug/mL stock; average ±SE; 23.0 °C. The procedure: (§1) The S. cerevisiae yeast cytosine deaminase (yCD) enzyme was cloned and expressed. The resulting 474 bp gene was subcloned into pET-15b to facilitate purification of the protein via a fused histidine tag and transformed into competent BL21(DE3) cells for protein expression. An estimate of about 25-30 mg of pure yCD-His was collected from a 1-liter culture. Thrombin cleavage of the histidine tag on yCD-His was achieved by incubating the protein for 2 hours at 23° C. in thrombin cleavage buffer. Enzyme activity characteristics for yCD and yCD-His was investigated using both the prodrug 5FC and the enzyme's natural substrate, the DNA base cytosine. Five-FC turnover rates remained within 10^5 M^−1·s^−1 (Table 1) for both proteins (see E. Kievit et al. Cancer Res. 2000, 60:6649-6655). The diffusion controlled limit for extremely efficient enzymes and their substrates in solution is in the range 10^8-10^9 M^−1·s^−1, therefore it was concluded that yCD was a very efficient pretargeting enzyme for catalyzing 5FC to 5FU conversion, especially applicable to GDEPT.

Substrate in data set [2]: Nc1nc(=O)[nH]cc1F
In words: Enzyme activity of yCD-His (substrate turnover). The settings on record: other: enzyme yCD-His, 10 uL of 4.52 ug/mL stock; average ±SE; 23.0 °C. How it is done:
as §1

Substrate in data set [3]: Nc1cc[nH]c(=O)n1
In words: Enzyme activity of yCD (His tag cleaved). The settings on record: other: enzyme yCD, 10 uL of 4.23 ug/mL stock; average ±SE; 23.0 °C. The procedure:
as §1

Substrate in data set [4]: Nc1nc(=O)[nH]cc1F
Description: Enzyme activity of yCD (His tag cleaved). The settings on record: other: enzyme yCD, 10 uL of 4.23 ug/mL stock; average ±SE; 23.0 °C. The procedure: as §1

B1: yCD-His (Saccharomyces cerevisiae S288C) (protein)
chain: MVTGGMASKWDQKGMDIAYEEAALGYKEGGVPIGGCLINNKDGSVLGRGHNMRFQKGSATLHGEISTLENCGRLEGKVYKDTTLYTTLSPCDMCTGAIIMYGIPRCVVGENVNFKSKGEKYLQTRGHEVVVVDDERCKKIMKQFIDERPQDWFEDIGE
notes: The resulting 474 bp gene was subcloned into pET-15b; made in house; host or cells: E. coli BL21(DE3)
B1: the Michaelis-Menten constant (Km) in data set [1] amounted to 4040 ± 1120 µM; in data set [2] it was 1000 ± 240 µM.

B2: yCD (Saccharomyces cerevisiae S288C) (protein)
chain: B1 chain
notes: The resulting 474 bp gene was subcloned into pET-15b; histidine tag (pET-15b) (N, cleaved yes); made in house; host or cells: E. coli BL21(DE3)
Regarding B2, the values for the Km in data set [3] and in data set [4] were 3750 ± 690 µM and 800 ± 180 µM, respectively.

The Km is the substrate concentration at which the rate is half of its maximum.
